In patent US20230348614A1 (VISTERRA, published 2023):
Positions count from the first letter of the chain named.

Legend:
G241A = biological target: T1, G241A (Homo sapiens, UniProt P18827); test: alanine scan: flow cytometry on HEK-293T cells expressing the mutant clone, 4320 Fab 0.50 ug/mL, normalised to WT CD138; Range %WT Binding 14; Normalized 4320 vs. BB4 53.5
T1 construct: clone of the alanine scanning library on HEK-293T cells; m17 with one substitution; also called CD138 G241A
T1 sequence (CD138 (SDC1), full length, point mutant, looked up): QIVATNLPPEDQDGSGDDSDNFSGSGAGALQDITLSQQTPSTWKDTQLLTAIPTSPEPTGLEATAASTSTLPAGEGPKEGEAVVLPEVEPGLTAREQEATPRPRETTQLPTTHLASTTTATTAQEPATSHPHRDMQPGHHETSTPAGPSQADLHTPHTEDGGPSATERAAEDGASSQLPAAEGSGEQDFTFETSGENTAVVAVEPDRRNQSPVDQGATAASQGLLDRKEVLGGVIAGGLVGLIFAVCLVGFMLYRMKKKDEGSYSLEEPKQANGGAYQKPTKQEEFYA
Description: (§1) Serial dilutions of each MAb were tested for immunoreactivity against cells expressing target protein (WT) or vector alone. Validation of target expression and optimization of detection and binding of anti-CD138 antibodies both by flow cytometry was completed in replicate (N=4). The optimal screening concentration for each MAb was determined based on the raw signal values and signal-to-background calculations specifically optimized for each test article. Optimized parameters included the use of 10% goat serum as blocking reagent. Primary antibody staining was for 60 minutes at 25° C. Wash buffer include phosphate buffered saline (divalent metal ion free), pH 7.4. […] Secondary antibodies were diluted 1:400 and incubated for 30 minutes at 25° C.
(§2) Library screens of very-high-affinity mAbs can fail to yield critical residues for antibody binding due to deficiencies of such an assay to detect and differentiate critical vs. less critical binding based on affinity and quantification of cell binding. One common approach in the literature is the use of monovalent antibody derived fragments such as Fab usually weakens binding sufficiently to allow identification of critical residues for binding. […] Binding of each test Ab to each mutant clone in the alanine scanning library was determined, in duplicate, and likewise evaluated by flow cytometry.

G160A = biological target: T2, G160A (Homo sapiens, UniProt P18827); test: alanine scan: flow cytometry on HEK-293T cells expressing the mutant clone, 4320 Fab 0.50 ug/mL, normalised to WT CD138; Range %WT Binding 24; Normalized 4320 vs. BB4 60.2
T2 construct: clone of the alanine scanning library on HEK-293T cells; m17 with one substitution; also called CD138 G160A
T2 sequence (CD138 (SDC1), full length, point mutant, looked up): T1 sequence (CD138 (SDC1), full length, point mutant, looked up) with G138A, A219G
Description: as §1, §2

G238A = biological target: T3, G238A (Homo sapiens, UniProt P18827); test: alanine scan: flow cytometry on HEK-293T cells expressing the mutant clone, 4320 Fab 0.50 ug/mL, normalised to WT CD138; Range %WT Binding 9; Normalized 4320 vs. BB4 30.2
T3 construct: clone of the alanine scanning library on HEK-293T cells; m17 with one substitution; also called CD138 G238A
T3 sequence (CD138 (SDC1), full length, point mutant, looked up): T1 sequence (CD138 (SDC1), full length, point mutant, looked up) with G216A, A219G
Description: as §1, §2

G169A = biological target: T4, G169A (Homo sapiens, UniProt P18827); test: alanine scan: flow cytometry on HEK-293T cells expressing the mutant clone, 4320 Fab 0.50 ug/mL, normalised to WT CD138; Range %WT Binding 2; Normalized 4320 vs. BB4 44.4
T4 construct: clone of the alanine scanning library on HEK-293T cells; m17 with one substitution; also called CD138 G169A
T4 sequence (CD138 (SDC1), full length, point mutant, looked up): T1 sequence (CD138 (SDC1), full length, point mutant, looked up) with G147A, A219G
Description: as §1, §2

R117A = biological target: T5, R117A (Homo sapiens, UniProt P18827); test: alanine scan: flow cytometry on HEK-293T cells expressing the mutant clone, 4320 Fab 0.50 ug/mL, normalised to WT CD138; Range %WT Binding 13; Normalized 4320 vs. BB4 14.8
T5 construct: clone of the alanine scanning library on HEK-293T cells; m17 with one substitution; also called CD138 R117A
T5 sequence (CD138 (SDC1), full length, point mutant, looked up): T1 sequence (CD138 (SDC1), full length, point mutant, looked up) with R95A, A219G
Description: as §1, §2

B1: Fab fragment of mAb 4320 (Fab, V domains shown)
VH: QVQLVQSGAEVKKPGASVKVSCKASGYSFSSYYMHWVRQAPGQGLEWMGTIHPSDSTTNYNQKFQGRVTMTVDTSTRTAYMELSSLRSEDTAVYYCANFVYWGQGTTVTVSS
VL: DIVMTQTPLSLSVTPGQPASISCKSSKSLLYKDGKTYLNWFLQKPGQSPQLLIYVVSTRASGVPDRFSGSGSGTDFTLKISRVEAEDVGVYYCQQLVEYPYTFGQGTKLEIKR
modifications: N-terminal Q1 observed as pyroglutamic acid (PCA) in the 138-2-5 complex
notes: In the crystal structures heavy chain residues 1-213 were traced; also called Fab4320
Mean %WT Binding (G241A): 53.5 %WT
Mean %WT Binding (G160A): 59.7 %WT
Mean %WT Binding (G238A): 28.3 %WT
Mean %WT Binding (G169A): 13.2 %WT
Mean %WT Binding (R117A): 14.4 %WT
